{
  "source": "paper PMC4510971",
  "about": "(2015)",
  "parents": {"B1": {"name": "UBN1(92–175) [human] / H3.3/H4 [human | X. laevis] (parent complex)", "chain 1": "NDEEKERHKVEALARKFEEKYGGKKRRKDRIQDLIDMGYGYDESDSFIDNSEAYDELVPASLTTKYGGFYINSGTLQFRQASES", "chain 2": "not shown", "chain 3": "not shown"}},
  "data": [
    {"variants_of": "B1", "experiment": "fluorescence polarization competition binding; 10 nM FITC-UBN1(127–148), 6.5 μM H3.3/H4; 20 mM HEPES pH 7.5, 750 mM NaCl, 1 mM TCEP; parent: 1.66e+04 nM", "units": {"IC50": "µM"}, "values": [
      {"variant": "chain 1 Q32A", "IC50": 13.8},
      {"variant": "chain 1 D33A", "IC50": 19.6},
      {"variant": "chain 1 G40A", "IC50": 19.9},
      {"variant": "chain 1 M37A", "IC50": 22.6},
      {"variant": "chain 1 D36A", "IC50": 21.1},
      {"variant": "chain 1 G38A", "IC50": 67.8},
      {"variant": "chain 1 D55A", "IC50": 23},
      {"variant": "chain 1 I35A", "IC50": 13.8},
      {"variant": "chain 1 Y39A", "IC50": 14.4},
      {"variant": "chain 1 E56A", "IC50": 22.9},
      {"variant": "chain 1 L57A", "IC50": 19.6},
      {"variant": "chain 1 I31A", "IC50": 16.9},
      {"variant": "chain 1 S46A", "IC50": 16.2},
      {"variant": "chain 1 E52A", "IC50": 29.3},
      {"variant": "chain 1 L34A", "IC50": 15.1},
      {"variant": "chain 1 A53I", "IC50": 16.3},
      {"variant": "chain 1 Y54A", "IC50": 16.4}
    ]}
  ]
}
